According to paper PMC5574378:

Experiments:
[1] = target: arsenite oxidase (Aio) from Rhizobium sp. str. NT-26, wild type (Rhizobium sp. str. NT-26)
[2] = target: arsenite oxidase (Aio) from Rhizobium sp. str. NT-26 with the AioB-F108A substitution (Rhizobium sp. str. NT-26); assay: ITC; 750 μM reduced cytochrome c in the syringe injected (1.5 or 2 μL) into 75 μM reduced Aio in the cell; 50 mM Tris-HCl (pH 8), no NaCl, 25 °C; 1:1 binding fit; three enzyme preparations
[3] = target: arsenite oxidase (Aio) from Rhizobium sp. str. NT-26, wild type (Rhizobium sp. str. NT-26); assay: as above

KM for cytochrome c, steady-state kinetics of Aio with 2.5 mM arsenite and 0.5-10 μM cytochrome c [1]: 1 µM | Kd [2]: 7.8 µM | dH (kcal mol^(− 1)) [2]: 3 | stoichiometry N [2]: 0.82 | Kd [3]: 2.3 µM | dH (kcal mol^(− 1)) [3]: 6 | stoichiometry N [3]: 0.85
Substance: horse heart cytochrome c (from UniProt P00004 1-105) (natural protein)
